Test results as given in patent US20260092121A1 (TALEM THERAPEUTICS, published 2026).
Substitutions are numbered along the chain they refer to. Names and notes keep the numbering of the source.

B1: KiH.3H11_TrkB × 8A05_CD3 (bispecific antibody)
scFv: QVQLQQSGPGLVKPSQTLSLTCAISGDSVSSNSAVWNWIRQSPSRGLEWLGRTYYRSKWYTDFAVSVKSRITINPDTSKNQFSLQLNSVTPEDTAVYYCARGRNGMDVWGQGTMVTVSTSSGGGGSGGGGSGGSALLPVLTQPPSASGTPGQRVTISCSGSSSNIGHKYVYWYQQLPGAAPKLLIYRNNQRPSGVPDRFSASKSGTSASLAISGLRSEDEADYYCATWDDSLNGVVFGGGTKVTVL
VH: QVQLQQSGGGLVQSGGSLRLSCAASGFSFGSSAMSWVRQAPGRGLEWVSGISHSGSTTYYADSVKGRFTISRDNSKNTLYLQMNSLRVEDTAVYYCAKIGAYGYYFHYWGQGTLVTVSS
VL: NFMLTQPHSVSESPGKTVTISCTRSGGSIASNYVQWYQQRPGSSPTTVIYDDNQRPSGVPDRFSGSIDSSSNSASLTISGLKTEDEADYYCQSSDNINHVIFGGGTKLTVL
notes: scFv-knob-Fc (IgG1 T366W/S354C) + Fab-hole-Fc (T366S/L368A/Y407V/Y349C); also called 3H11-8A05
B2: KiH.6E08_TrkB × 3G07_CD3 (bispecific antibody)
scFv: QVQLVQSGGGVVQPGRSLRLSCAASGFTFSSYAMHWVRQAPGKGLEWVAVISYDGSNKYYADSVKGRFTISRDNSKNTLYLQMNSLRAEDTAVYYCARAFRRYDAFDIWGQGTLVTVSSSSGGGGSGGGGSGGSALDIQMTQTPLSLSVTLGQPASISCRSSQGLVYSDGNTYLNWFQQRPGQSPRRLIYKVSNRDSGVPDRFSGSGSGTDFTLKISRVEAEDVGVYYCMQGTHWPPAFGQGTKVEIK
VH: B1 VH with S14P
VL: NFMLTQPHSLSESPGKTVTISCTRSSGSIASKYVQWYQQRPGSAPTTVIYDDKQRPSGVPDRFSGSFDSSSNSASLTISGLKTEDEADYYCQSFDSTNQAVVFGGGTKLTVL
notes: scFv-knob-Fc (IgG1 T366W/S354C) + Fab-hole-Fc (T366S/L368A/Y407V/Y349C); also called 6E08-3G07
B3: KiH.6E08_TrkB × 8A05_CD3 (bispecific antibody)
scFv: B2 scFv
VH: B1 VH
VL: B1 VL
notes: scFv-knob-Fc (IgG1 T366W/S354C) + Fab-hole-Fc (T366S/L368A/Y407V/Y349C); also called 6E08-8A05
B4: KiH.3H11_TrkB × 3G07_CD3 (bispecific antibody)
scFv: B1 scFv
VH: B1 VH with S14P
VL: B2 VL
notes: scFv-knob-Fc (IgG1 T366W/S354C) + Fab-hole-Fc (T366S/L368A/Y407V/Y349C); also called 3H11-3G07
B5: KiH.6E08_TrkB × 1A09_CD3 (bispecific antibody)
scFv: B2 scFv
VH: EVQLVQSGGGLVKPGGSLRLSCAASGFTFSSYSMNWVRQAPGKGLEWVSSISSSSSYIYYADSVKGRFTISRDNSKNTLYLQMNSLRAEDTAVYYCARVKDYDSSLDYWGQGTLVTVSS
VL: SYELMQPPSVSVSPGQTARITCSGFKLGDKYVSWYQQKPGQSPVLVIYQDSKRPSGIPERFSGSNSGNTATLTISGTQAMDEADYYCQAWDSSTVVFGGGTKLTVL
notes: scFv-knob-Fc (IgG1 T366W/S354C) + Fab-hole-Fc (T366S/L368A/Y407V/Y349C); also called 6E08-1A09
B6: KiH.3C12_TrkB × 1A09_CD3 (bispecific antibody)
scFv: QVQLVQSGAEVKKPGESLKISCKGSGYSFTSYWIGWVRQMPGKGLEWMGIIYPGDSDTRYSPSFQGQVTISADKSISTAYLQWSSLKASDTAMYYCTRSSFNDHWGQGTLVTVSSSSGGGGSGGGGSGGSALQPVLTQPPSVSVSPGQTASITCSGDKLGNKFVSWFQQKPGQSPVLVIYQDTKRPSGIPERFSGSNSGSTATLTITGTQAMDDADYYCQAWNTNTALFGGGTKLTVL
VH: B5 VH
VL: B5 VL
notes: scFv-knob-Fc (IgG1 T366W/S354C) + Fab-hole-Fc (T366S/L368A/Y407V/Y349C); also called 3C12-1A09; 3C12/1A09

Target: T1, human TrkB-His (human, UniProt Q16620 32-430)
T1 construct: in-house fusion of the TrkB ECD with poly-His, HEK293; also called huTrkB-His; hTrkB-His; not shown: poly-His tag
Test: ELISA

Binding result, binds:
B1
B2
B3
B4
B5
B6
